Laboratory results from the nanobody polyreactivity screen of Harvey et al. (2022).

Experiment: yeast display, Sf9 membrane polyspecificity reagent, FACS + sequencing; frameworks hold sequencing errors
How it was run: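 A nanobody's polyreactivity label depends on the gate it was sorted from. Yeast display cells were stained with 10% biotinylated, detergent-solubilized Sf9 membrane reagent for 1 hour at 4 °C, enriched on streptavidin microbeads and sorted by FACS. The low and high (top ~1%) gates were set on anti-HA fluorescence for expression and streptavidin fluorescence for reagent binding.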

| Sequence | polyreactivity (PSR sort gate) |
| --- | --- |
| QVHLVESGGGLVQAGGSLRLSCAASGSIFASNTMGWYRQAPGKERELVAGITKIGSSTYYADSVKGRFTISRDNAKNTVYLQMNSLKPEDTAVYYCNAYGPNIYSSRYDYWGQGTQVTVSS | low polyreactivity |
| QVQLVESGGGLVQAGGSLRLSCAASGGMLPKNAMGWYRQAPGKVRELVAGISTRGTSTYYADSVKGRFTISRDNAKNTVYLQMNSLKPEDTAVYYCATSRDYIGYDYWGQGTQVTVSS | low polyreactivity |
| QVQLVESGGGLVQAGGSLRLSCAASGFIFYRYAMGWYRQAPGKERELVSAISYRGGSTYYADSVKGRFTISRDNAKNTVYLQMNSLKPEDTAVYYCAASLRYYGLEMDYWGQGTQVTVSS | high polyreactivity |
| QVQLQEGGGLVQAGGSLRLSCAASGYISSRPAMGWYRQAPGLERAFVATIADGTSTDYADSVKGRFTISRDNAKNTVYLQMYRLQPEDTAVNYCAAAYNTQYYLSYWGQGTQVTVRS | high polyreactivity |
| QYQLEDSGGGVVQAGCSLRLSCAASGRTFAYYAMGWYRQAPGKERELVAAISSSGGRTYYADSVKGRFTISRDNAKKTVYLQMNSLIPEDTAVYYCAATSTSGVLYDYWGQGTQVTVSS | high polyreactivity |
| QVQLVESGGGLVQEGGSLRLICAASGSIFEVNAMGWYRQAPGKERELAATITYSGGSTYYADSVKGRFTISRDNAKNTVYFQMNSLKPEDTAVYYCATDYVDWELYIYDYWGQGTQVTVSS | low polyreactivity |
| QVQLVESGGGLVQAGGSLRLSCAASGIFGGYAMGWYRQAPGKERELVAAISYSGGTTYYADSVKGRFTISRDNAKNTVYLQMNSLKPEDTAVYYCNADDPDYLVSYRYDYWGQGTQVTVSS | low polyreactivity |
| QVQLVESGGGLVQAGGSLRLSCAASGRIFPVYTMGWYRQAPGKERELVAAISGNGASTYYADSVKGRFTISRDNAKNTVYFHMNRLKPEYTAVYYCAAYFYYWGSTFVRYEYWGQGTQVTVSS | high polyreactivity |
| QVQLVESGGGLVQAGGSLRLSCAASGRIFYKYAMGWYRQAPGKERELVAAISYSGGSTYYADSVKGRFTISRDNAKNTVYLQMKSLKPEDTAVYYCNAKPPYGVRSWGDYWGQGTQVTVSS | low polyreactivity |
| QVQLVESGGGLVQAGGSLRLSCAASGSTFVSNAMGGYRQAPGKERELVAAISSSGGRTSYADSVKGRFTISRDNAKNTVYLQMNSLKPEDTAVYYCAARFKSVDYVQYYYWGQGTQVTVSS | low polyreactivity |
| QFQLEESGGGLVQAGGSLRLSCDASGSTFSYALGWYRQAPGKERELVAAITIGGRTSYADSVKGRFTISRDNAKNTVYLQMNSLKPEDTAVYYCAAEGYYPVYYYVYYGYDYWGQGTQVTVSS | low polyreactivity |
| QVQLVESGGGLVQAGGSLRLSCAASGSNFVYNAMGRNRQAPGKERELVAAISSGGRTNYADSVKGRFTISRDNANNTVYLQMNSLKPEDTAVYYCADEGLLWWSGYYYWGQGTQVTVYS | high polyreactivity |
| QVQLVESGGGLVQAGGSLRLSCAASGFIFGDYAMGWYRQAPGKERELVAAIRCSDSTTYYADSVKGRFTISRDNAKNTVYLQMNSLKPEDTAVYYCAAVGVVPRKKSARVYYWGQGTQVTVSS | low polyreactivity |
| QVQLVESGGGLVQAGGSLRLSCAASGFTFVDNAMGWYRQAPGKERELVAVIDFNDGTTYYADSVKGRFTISRDNAKNTVYLLMNSLKPEDTEVYYCNVDSSLILWVEYDYWGQGTQVTVSS | low polyreactivity |
| QVQLVESGGGLVQAGGSLRLSCAASGRTSGAYAMGWYRQAPGKERELVAAISIAGITYADSVKGRFTISRDNAKNTVYLQMNSLKPEDTAVYYCAAYYLFRPYAQYDYWGQGTQVTVSS | low polyreactivity |
| QVQLVESGGGLVQAGGSLLLSCAASGGTLRYYAMGWYRQAPGKEREFVASISRSGGSTYYADSVKGRFTISRDNAKNTVYLQMNSLKPEDTAVYYCAAYWSPGYTTRRGYWGQGTQVTVSS | high polyreactivity |
| QVQLVESGGGLVQAGGSLRLRCAASGRIFRSYAMGWYRQAPGKEWEMVAAITSGTRTNYADSVKGRCTISRDNAKNTVYLQMNSLKPEDTAVSYCAARGSGFPPYRTRNYWGQGTQVTVSS | high polyreactivity |
| QVQLVESGGGLVQAGGSLRLSCAASGFIFGNNDMGWNRQAPGKERELVAGITWSGSSTYYADSVKGRFTISRDNAKNTVYLQMNSLKPEDTAVYYCARDGNDGYEYWGQGTQVTVSS | high polyreactivity |
| QVQLEESGGCLVQAGGSLRLSCAASGYIFTPYAKGWYRPAPGKEREFVAAITRSGGSTYYADSVKGRFTISRDYAKNTVYLQMNSLKPEDTAVYYCARYANYDKRYDYWGQGTQVTVSS | high polyreactivity |
| QVQLVESGRGLVQAGGSLRLSCAASGIIFKRYAMGWYRQAPGKERELVATINRDGRTSYADSVKGRFTSSRDNAKNTVYLQMHSLKPEDTAVYYCAATYLLERPTSKHPRYDYWGQGTQVTLSS | low polyreactivity |
| QVQLVESGGGLVQAGGSLRLSCAASGSIFDKNAMGWYRQAPGKERELVAAITSSGGDTYYADSVKGRFTISRDNAKNTVYLQMYSLKPEDTAVYYCAALGGRYRASTYGYWGQGTQVTVSS | high polyreactivity |
| QVQLVESGGGLVQAGGSLRLSCAASGGTFVFYAMGWYRQAPGKERELVAAISSAGRTYYADSVKGRFTISRDNAKNTVYLQMNSLKPEDTAVYYCAAVSSQYDGRYYYWGQGTQVTVSS | high polyreactivity |

| Sequence | polyreactivity (PSR sort gate) |
| --- | --- |
| QVQLVESGGGLVQAGGSLRLSCAASGRIFWHYAMGWYRQAPGKERELVAAISSRGGSTYYADSVKGRFTISRDNAKNTVYLQMNSLKPEDTAVYYCAADRVDGGSYYHSGYWGQGTQVTVSS | high polyreactivity |
| QVQLVESGGGLVQAGGSLRLSCAASGFTFGSYAMGWYRQAPGTERELVADISRRGGRTYYADSVKGRFTISRDNAKNTVYLQMNSLKPEDTAVYYCNAVSYVYFYSSSYDYWGQGTQVTVSS | high polyreactivity |
| QVQLVESGGGLVQAGGSLRLSCAASGLTFVLYAMGWYRQAPGKERELVAAISKRGGSTNYADSVKGRFTISRDIAKNTVYLQMNSLKPEDTAVYYCAARYPQGGTGKATYVRSRSGYWGQGTKVTVSS | high polyreactivity |
| QVQLVESGGGLVQAGGSLRLICAASGIIFDVYAMGWYRQAPGKERELVAAISYGGGTTYYADSVKGRFTISRDNAKNTVYLQMNSLKPEDTAVYYCAADSYRSIGDDYWGQGTQVTVSS | high polyreactivity |
| QDQLVESGGGLVQAGASLRLSCAASGNIFANAMGWYRQAPGKQRELVAAISRSGGRTYYADSVKGRFTISRDNANNTVYLQMKSLIPEDTAVSYCNKAAYNYYLYGYWGQGTQVTVSS | high polyreactivity |
| QVQLVESGGGLVQAGGSLRLSCAASGSIFAQYGLGWYRQAPGKERELVADISGPGVSTYYADSVKGRFTISRDNAKNTVYLQMNSLKPEDSAVYYCAADYYYPYYWGQGTQVTVSS | low polyreactivity |
| QVQLVESGGGLVQAGGSLRLSCAASGFTFVINYMGWYRQAPGKERELVADITSGGDTYYADSVKGRFTISRDNAKNTVYLQMNSLNPEDTAVYYCAADIYPDWIYLLYGYWGQVTQVTVSS | low polyreactivity |
| QVQLVESGGGLVQAGGSLRLICAASGRIFHYYMGWYRQAPGKEMELVAVISSGDGTYYADSVKGRFTISRDNAKYTFYLQMNSLKPEDTAVYYWAADAPREYDDHYKYDDDYCGQGTQVTVSS | low polyreactivity |
| QVQLVESGGGLVQAGGSLRLSCAASGFTFYYNAMGWYRQAPGKERELVASITRSGGRTYYADSVKGRFTISRDNAKNTVYLQMNSLKPEDTAVYYCARRYPGGYYWGQGTQVTVSS | high polyreactivity |
| QVQLVESGGGLVQAGGSLRLTCAASGRTFRLYVMGWYRQAPGKERELVASISYGGGRTYYADSVKGRFTISRDNAKNTVYLQMNSLKPEDTAVYYCAARYYTYRLDMDYWGQGTQVTVSS | high polyreactivity |
| QVQLVESGRGLVQAGGSLRLSCAPSGRIFKYYAKGWYRQAPGKERELVATITSGANTNYADSVKGRFTISRDNAKNTVYLQMNSLKPEDTAVYYCNADLDPRDYGFDYWGQGTQVTVSS | high polyreactivity |
| QVQLVESGRGLVQAGGSLRLSCAASGFTFAFYAMGWYRQAPGKERELVAAISRRGGSTTYADSVKGRFTISRDNAKNTVYLQMNSLIPEDSAVYYCNAVSTRNPGPDYYYWGQGTQVTVSS | high polyreactivity |
| QVHLVESGGGLVQAGGSLRLSCAASGSIYTRYAMGWYRQAPGKERDLVAAITVSGGSTYYADSVKGRFTISRDNAKNTVYLQMNSLKPEDTAVYYCARRAWSGPGYFKAIRRFDYWGQGTQVTVSS | low polyreactivity |
| QVQLVESGGGLVQAGGSLRLSCAASGSIFSRYALGWYRQAPGKERELVAAISTIGGSTYYADSVKGRFTISRDNSKNTVYLQMNSLKPEDTAVYYCNARQSAALSPRYGYWGQGTQVTVSS | high polyreactivity |
| QVQLVESGGGLVQAGGSLRLSCADSGFTFAANTMGWYRQAPGKARELVADISGRGDRTSYADSVKGRFTISRDNAKNTVYLQMNSLKPEDTAVYYCAVDIYYYSNVHYYYWGQGTQVTVSS | low polyreactivity |
| QVQLVESGGGLVQAGGSLRLSCAASGFTIYPYAMGWYRQAPGKERELVAAISQRGGRTSYADSVKGRFTISRDNAKNTVYLQMNSLKPEDTAVYYCAARFWATEGYWGQGTQVTVSS | high polyreactivity |
| QVQLVESGGGLVQAGGSLRLSCAASGRIFYYYGMGWYRQAPGKEREFVAAISLGGARTYYADSVKGRFTISRDNAKNTVYLQMNSLKPEDTAVYDCYARGIGRSTKWSSRDYWGQGTQVTVSS | high polyreactivity |
| QVQLVESGGGLVQAGGSLRLSCAASGRIFWVNAMGWYIQAPGKERELVAVISRGGSTTYADSVKGRFTISRDNEKNTVYLQMNSLKPEDTAVYYCAADAYSHAFLYYGYDYWGQGTQVTVSS | low polyreactivity |
| QVQLVESGGGLVQAGGSLRLSCAASGRTFSYYAMGWYRKAPGKERELVASISGGGRTNYADSVKGRFTISRDNAKNTVYLQMNSLKPEDTAVYYCAARYLITRQYKRGYWGQGTQVTVSS | high polyreactivity |
| QVQLVESGGGLVQAGGSLRLSCAASGFTFLKNAMGWYRQAPGKERELVAAITSSGGRTYYADSVKGRFTISRDNAKNTVYLQMNSLKPEDTAVYYCAADHTHGYVLYYNDNYWGQGTQVTVSS | high polyreactivity |
| QVQLVESGRGLVQAGGSLRLSCAASGSIFNAYAMGWYRQAPGKERELVADISKRTSYADSVKGRFTISRDNAKNTVYLQMNSLKPEDTADYYCAKEVDEPDGYEYDYWGQGTQVTVSS | low polyreactivity |
